Reference: article PMC5472220 (Nature structural & molecular biology, 2017)

Biological target: the molecule itself
Assay: cryo-EM structure

B1: E. coli CTP synthase (ecCTPS), wild type (enzyme)
chain: MTTNYIFVTGGVVSSLGKGIAAASLAAILEARGLNVTIMKLDPYINVDPGTMSPIQHGEVFVTEDGAETDLDLGHYERFIRTKMSRRNNFTTGRIYSDVLRKERRGDYLGATVQVIPHITNAIKERVLEGGEGHDVVLVEIGGTVGDIESLPFLEAIRQMAVEIGREHTLFMHLTLVPYMAASGEVKTKPTQHSVKELLSIGIQPDILICRSDRAVPANERAKIALFCNVPEKAVISLKDVDSIYKIPGLLKSQGLDDYICKRFSLNCPEANLSEWEQVIFEEANPVSEVTIGMVGKYIELPDAYKSVIEALKHGGLKNRVSVNIKLIDSQDVETRGVEILKGLDAILVPGGFGYRGVEGMITTARFARENNIPYLGICLGMQVALIDYARHVANMENANSTEFVPDCKYPVVALITEWRDENGNVEVRSEKSDLGGTMRLGAQQCQLVDDSLVRQLYNAPTIVERHRHRYEVNNMLLKQIEDAGLRVAGRSGDDQLVEIIEVPNHPWFVACQFHPEFTSTPRDGHPLFAGFVKAASEFQKRQAK
Question: How did the “stoichiometry N” value turn out when B1 was run?
Answer: 4
